Results from US20260201030A1, “ANTIBODY, ANTIBODY-DRUG CONJUGATE THEREOF AND USE THEREOF” (EVOPOINT BIOSCIENCES CO., LTD., priority 2021, published 2026).

Columns and labels:
Type in all cases: binding
mouse Claudin18.2 = molecular target: T1, mouse Claudin18.2 (Mus musculus, UniProt P56857); assay: FACS species affinity on HEK293T-Claudin18.2 (mouse) cells; settings: cell-based FACS
T1 construct: expressed in transfected cells
Procedure: (§1) The affinity of the anti-human Claudin18.2 humanized monoclonal antibodies for Claudin18.2 of different species was determined by flow cytometry (FACS). The experimental procedures were as follows: HEK293T-Claudin18.2 (cynomolgus monkey) cells, HEK293T-Claudin18.2 (mouse) cells and HEK293T-Claudin18.2 (rat) cells were digested, collected by centrifugation, washed three times with pre-cooled PBS, resuspended in 1% BSA (in PBS), and added to a 96-well pointed bottom plate at 3×10^5 cells/well. Each antibody subjected to gradient dilution was added, and the mixture was incubated at 4° C. for 1 h. The cells were washed three times with pre-cooled PBS, and then 1 μL of a fluorescent secondary antibody (APC: Biolegend-410712) was added to each well. The mixture was incubated at 4° C. for 0.5 h, and the cells were washed three times with pre-cooled PBS, then resuspended, and assayed on a flow cytometer.

human Claudin18.2 [1] = molecular target: T2, human Claudin18.2 (Homo sapiens, UniProt P56856); assay: Cell-based ELISA affinity of humanized antibodies on L929-Claudin18.2 (human) cells; settings: L929-Claudin18.2 cells
T2 construct: expressed in transfected cells

human Claudin18.2 [2] = molecular target: T2, human Claudin18.2; assay: Cell-based FACS affinity on HEK293T-Claudin18.2 (human) cells
Procedure: (§2) The affinity of the anti-human Claudin18.2 humanized antibodies was detected by flow cytometry. The experimental procedures were as follows: The adherent cultured HEK293T-Claudin18.2 (human), NUGC4-Claudin18.2 (human) and NUGC4 cells were digested, collected by centrifugation, and washed three times with pre-cooled PBS. The cells were resuspended in 1% BSA (in PBS) and added to a 96-well pointed bottom plate at 3×10^5 cells/well, with a volume of 50 μL per well. Each test antibody was diluted with 1% BSA (in PBS) (starting at 100 μg/mL, diluted in a 3-fold gradient, for 10 concentration points). The test antibody subjected to gradient dilution was added to the cells at 50 μL/well, and the mixture was well mixed and incubated at 4° C. for 1 h. The cells were collected by centrifugation, washed three times with pre-cooled PBS, and resuspended in 50 μL of 1% BSA (in PBS). 1 μL of a fluorescent secondary antibody (Biolegend-410712) was added to each well, and the mixture was well mixed and incubated at 4° C. for 0.5 h. The cells were collected by centrifugation, washed three times with pre-cooled PBS, resuspended in 200 μL of PBS, and assayed on a machine.

human Claudin18.2 [3] = molecular target: T2, human Claudin18.2; assay: Cell-based ELISA affinity on NUGC4-Claudin18.2 (human) cells
human Claudin18.2 [4] = molecular target: T2, human Claudin18.2; assay: Cell ELISA affinity before and after conjugation, NUGC4 cells; settings: FIG. 8B
Procedure: The cell binding affinity of the antibody before and after conjugation to the toxin was detected according to a method similar to that described in Example 2.2. L929-claudin 18.2 (human) or NUGC4 cells were digested with trypsin, collected by centrifugation, washed three times with pre-cooled PBS, resuspended, added to a 96-well plate at 5×10^4 cells/well, and incubated overnight. The cells were fixed with 4% paraformaldehyde and blocked with 2% BSA (in PBS) at 37° C. for 2 h. Each ADC drug or antibody subjected to gradient dilution was added, and the mixture was incubated at 37° C. for 2 h. […] A TMB substrate was added for color development, and after the reaction was stopped by 2 M HCl, OD450 nm values were read on a microplate reader.

human Claudin18.2 [5] = molecular target: T2, human Claudin18.2; assay: Cell-based FACS affinity on NUGC4-Claudin18.2 (human) cells
Procedure: as §2

rat Claudin18.2 = molecular target: T3, rat Claudin18.2 (Rattus norvegicus, UniProt Q5I0E5); assay: FACS species affinity on HEK293T-Claudin18.2 (rat) cells; settings: cell-based FACS
T3 construct: expressed in transfected cells
T3 sequence (Q5I0E5 1-261 isoform Q5I0E5-2): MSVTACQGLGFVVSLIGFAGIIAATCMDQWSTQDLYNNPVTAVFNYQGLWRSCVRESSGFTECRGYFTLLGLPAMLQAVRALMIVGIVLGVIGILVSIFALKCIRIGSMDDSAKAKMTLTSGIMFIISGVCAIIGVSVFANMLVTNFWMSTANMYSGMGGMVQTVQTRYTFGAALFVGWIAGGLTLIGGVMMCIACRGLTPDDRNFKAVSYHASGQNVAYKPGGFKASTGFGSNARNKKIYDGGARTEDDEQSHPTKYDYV
Procedure: as §1

human Claudin18.1 = molecular target: T4, human Claudin18.1 (Homo sapiens, UniProt P56856); assay: FACS specificity of humanized antibodies on HEK293T-Claudin18.1 (human) cells; settings: antibody 50 μg/mL, PE secondary antibody
T4 construct: expressed in transfected cells
Procedure: The specificity of the anti-human Claudin18.2 humanized monoclonal antibodies was determined by flow cytometry (FACS). The experimental procedures were as follows: HEK293T-Claudin18.1 (human) cells were digested, collected by centrifugation, washed three times with pre-cooled PBS, resuspended in 1% BSA (in PBS), and added to a 96-well pointed bottom plate at 3×10^5 cells/well. Each test antibody with a final concentration of 50 μg/mL was added, and the mixture was incubated at 4° C. for 1 h. The cells were washed three times with pre-cooled PBS, and then 1 μL of a fluorescent secondary antibody (APC: Biolegend-410712 or PE: BioLegend-410708) was added to each well. The mixture was incubated at 4° C. for 0.5 h, and the cells were washed three times with pre-cooled PBS, then resuspended, and assayed on a flow cytometer. For reference, anti-human Claudin18.1 positive control antibodies (positive control antibody-1 and positive control antibody-2) were included in the experiment.

human Claudin18.2 [6] = molecular target: T2, human Claudin18.2; assay: Cell-based FACS affinity on NUGC4 cells
Procedure: as §2

T1 sequence (P56857 1-264 isoform P56857-3): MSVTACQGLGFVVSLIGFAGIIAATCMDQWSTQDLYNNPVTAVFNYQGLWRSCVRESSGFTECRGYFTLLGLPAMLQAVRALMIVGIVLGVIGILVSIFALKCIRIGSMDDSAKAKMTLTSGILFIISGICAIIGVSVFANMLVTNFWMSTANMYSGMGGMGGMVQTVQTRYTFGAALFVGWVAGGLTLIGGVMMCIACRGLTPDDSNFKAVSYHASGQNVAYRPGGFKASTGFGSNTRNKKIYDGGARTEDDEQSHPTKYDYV

Row | HEK293T-Claudin18.2 (mouse) EC50 (mouse Claudin18.2) [µg/mL] | Affinity detected by cell-based ELISA (EC50, ng/mL) L929-Claudin18.2 (human Claudin18.2 [1]) | HEK293T-Claudin18.2 EC50 (human Claudin18.2 [2]) [µg/mL] | HEK293T-Claudin18.2 Maximum signal value (human Claudin18.2 [2]) | NUGC4-Claudin18.2 EC50 (human Claudin18.2 [3]) [µg/mL] | NUGC4-Claudin18.2 Maximum signal value (human Claudin18.2 [3]; OD450) | change in affinity for the cells before and after conjugation (human Claudin18.2 [4]) | NUCG4- Claudin18.2 EC50 (human Claudin18.2 [5]) [µg/mL] | NUCG4- Claudin18.2 Maximum signal value (human Claudin18.2 [5]) | HEK293T-Claudin18.2 (rat) EC50 (rat Claudin18.2) [µg/mL] | Mean PE fluorescence signal value (human Claudin18.1) | Median PE fluorescence signal value (human Claudin18.1) | Positive rate (%) (human Claudin18.1) | binding to NUGC4 (in words) (human Claudin18.2 [6]) | Molecule
1 | 0.9407 | 13.41 ng/mL | 0.292 | 113572 | 0.1076 | 1.284 | no significant changes in the affinity | 3.192 | 871132 | 1.672 | 583 | 504 | 0.54 | significant binding | 25C7A5-HZ1: humanized anti-Claudin18.2 antibody, VH SEQ ID NO: 1, VL SEQ ID NO: 2, human IgG1/Kappa constant regions (antibody, V domains shown, human IgG1/kappa constant regions) VH: QVQLVQSGAEVKKPGSSVKVSCKASGYTFTNYWLHWVRQAPGQGLEWMGMMHPISGSSNYAQKFQGRATLTVDKSTSTAYMELSSLRSEDTAVYYCARGLLSAMDYWGQGTLVTVSS VL: EIVLTQSPATLSLSPGERATLSCKASENVKTYVSWYQQKPGQSPRLLIYEASNRYTGVPARFSGSGSATDFTLTISSLEPEDFAVYFCGQTYSFPPTFGQGTKVEIK
2 |  | 14.80 ± 3.1(N = 2) ng/mL | 0.2928 | 119070 |  |  | no significant changes in the affinity |  |  |  | 559 | 471 | 0.55 |  | 25C7A5-HZ2: humanized anti-Claudin18.2 antibody, VH SEQ ID NO: 3, VL SEQ ID NO: 2, human IgG1/Kappa constant regions (antibody, V domains shown, human IgG1/kappa constant regions) VH: QVQLVESGAEVKKPGSSVKVSCKASGYTFTNYWLHWVRQAPGQGLEWMGMMHPISGSSNYAQKFQGRATLTVDKSTSTAYMELSSLRSEDTAVYYCARGLLSAMDYWGQGTLVTVSS VL: EIVLTQSPATLSLSPGERATLSCKASENVKTYVSWYQQKPGQSPRLLIYEASNRYTGVPARFSGSGSATDFTLTISSLEPEDFAVYFCGQTYSFPPTFGQGTKVEIK
